Laboratory results from article PMC11480844 (2024).

B1: H2-Kb / Ed40 (parent complex)
chain 1: GDSVTQTEGPVTVSESESLIINCTYSATSIAYPNLFWYVRYPGEGLQLLLKVITAGQKGSSRGFEATYNKETTSFHLQKASVQESDSAVYYCALGDGYTGNYKYVFGAGTRLKVIA
chain 2: DSGVVQSPRHIIKEKGGRSVLTCIPISGHSNVVWYQQTLGKELKFLIQHYEKVERDKGFLPSRFSVQQFDDYHSEMNMSALELEDSAMYFCASSGASAETLYFGSGTRLTVL
chain 3: not shown
chain 4: IQKTPQIQVYSRHPPENGKPNILNCYVTQFHPPHIEIQMLKNGKKIPKVEMSDMSFSKDWSFYILAHTEFTPTETDTYACRVKHDSMAEPKTVYWDRDM
chain 5: SIINFEKL
B2: H2-Kb / Ed33 (parent complex)
chain 1: SQLAEENSWALSVHEGESVTVNCSYKTSITALQWYRQKSGKGPAQLILIRSNEREKRNGRLRATLDTSSQSSSLSITATRCEDTAVYFCATDHNNAGAKLTFGGGTRLTVRP
chain 2: DAGVTQTPRHEVAEKGQTIILKCEPVSGHNDLFWYRQTKIQGLELLSYFRSKSLMEDGGAFKDRFKAEMLNSSFSTLKIQPTEPKDSAVYLCASSLYTNQAPLFGEGTRLSVL
chain 3: not shown
chain 4: B1 chain 4
chain 5: SIINFEKL

Variants of: B1
Test: % of reporter cells activated (NFAT-GFP), raw
Also: test concentration or dose not given here.

In order of rising ratio to parent:
1. chain 5 N4Q  0.00152
2. chain 5 N4E  0.00154
3. chain 5 N4M  0.00232
4. chain 5 E6I  0.00278
5. chain 5 N4W  0.00287
6. chain 5 N4P  0.00321
7. chain 5 N4V  0.00392
8. chain 5 E6V  0.00511
9. chain 5 K7E  0.00653
10. chain 5 N4D  0.00665
11. chain 5 N4F  0.00938
12. chain 5 K7D  0.0102
13. chain 5 N4G  0.0118
14. chain 5 N4S  0.0147
15. chain 5 E6C  0.0158
16. chain 5 N4A  0.0166
17. chain 5 K7F  0.0192
18. chain 5 N4I  0.02
19. chain 5 N4C  0.0253
20. chain 5 N4K  0.0365
21. chain 5 K7M  0.0429
22. chain 5 K7C  0.0448
23. chain 5 E6W  0.0475
24. chain 5 N4H  0.0593
25. chain 5 E6F  0.0664
26. chain 5 E6Y  0.0704
27. chain 5 E6T  0.0789
28. chain 5 N4L  0.086
29. chain 5 E6L  0.11
30. chain 5 K7Q  0.121
31. chain 5 E6S  0.162
32. chain 5 K7N  0.163
33. chain 5 E6P  0.164
34. chain 5 K7I  0.165
35. chain 5 I3D  0.166
36. chain 5 E6M  0.172
37. chain 5 I3R  0.207
38. chain 5 K7V  0.224
39. chain 5 I3A  0.28
40. chain 5 E6N  0.287
41. chain 5 K7P  0.296
42. chain 5 S1N  0.31
43. chain 5 I3Q  0.329
44. chain 5 K7A  0.343
45. chain 5 N4R  0.362
46. chain 5 K7G  0.382
47. chain 5 S1E  0.432
48. chain 5 K7Y  0.444
49. chain 5 E6A  0.445
50. chain 5 I3M  0.462
51. chain 5 S1L  0.466
52. chain 5 I3W  0.488
53. chain 5 F5D  0.49
54. chain 5 E6Q  0.527
55. chain 5 S1R  0.532
56. chain 5 I3N  0.534
57. chain 5 I3E  0.545
58. chain 5 L8D  0.546
59. chain 5 L8C  0.555
60. chain 5 S1P  0.576
61. chain 5 S1I  0.597
62. chain 5 F5Q  0.601
63. chain 5 I3P  0.601
64. chain 5 L8E  0.612
65. chain 5 S1C  0.615
66. chain 5 F5I  0.615
67. chain 5 E6K  0.634
68. chain 5 I3F  0.641
69. chain 5 K7W  0.644
70. chain 5 L8N  0.645
71. chain 5 K7S  0.648
72. chain 5 L8P  0.651
73. chain 5 I2W  0.654
74. chain 5 I3H  0.67
75. chain 5 E6R  0.675
76. chain 5 L8S  0.681
77. chain 5 F5K  0.685
78. chain 5 I2Q  0.697
79. chain 5 I2H  0.7
80. chain 5 L8Q  0.716
81. chain 5 S1V  0.738
82. chain 5 K7H  0.754
83. chain 5 I2N  0.757
84. chain 5 S1F  0.765
85. chain 5 F5G  0.78
86. chain 5 L8R  0.785
87. chain 5 L8W  0.787
88. chain 5 I3S  0.789
89. chain 5 I3K  0.791
90. chain 5 L8K  0.816
91. chain 5 L8A  0.816
92. chain 5 L8H  0.822
93. chain 5 L8V  0.831
94. chain 5 I2Y  0.834
95. chain 5 E6D  0.844
96. chain 5 F5M  0.856
97. chain 5 F5V  0.868
98. chain 5 I2E  0.869
99. chain 5 F5N  0.891
100. chain 5 I3L  0.895
101. chain 5 L8M  0.897
102. chain 5 F5L  0.906
103. chain 5 I2M  0.913
104. chain 5 S1H  0.914
105. chain 5 S1T  0.92
106. chain 5 F5R  0.938
107. chain 5 F5P  0.944
108. chain 5 F5A  0.944
109. chain 5 L8I  0.95
110. chain 5 I2R  0.958
111. chain 5 L8Y  0.96
112. chain 5 I2K  0.968
113. chain 5 S1Y  0.977
114. chain 5 S1M  0.993
115. chain 5 L8F  0.993
116. chain 5 I2F  1
117. chain 5 S1A  1.01
118. chain 5 F5C  1.01
119. chain 5 I2C  1.02
120. chain 5 F5W  1.02
121. chain 5 F5H  1.06
122. chain 5 I2P  1.07
123. chain 5 F5S  1.09
124. chain 5 F5Y  1.11
125. chain 5 I2A  1.13
126. chain 5 I2L  1.14
127. chain 5 I2V  1.15
128. chain 5 I2T  1.18
129. chain 5 I2D  1.2
130. chain 5 F5T  1.22

Variants of: B2
Test: % of reporter cells activated (NFAT-GFP), raw

In order of rising ratio to parent:
1. chain 5 N4M  0.00151
2. chain 5 E6L  0.00458
3. chain 5 N4Y  0.0163
4. chain 5 K7D  0.0503
5. chain 5 K7L  0.0519
6. chain 5 E6S  0.0699
7. chain 5 N4V  0.181
8. chain 5 N4I  0.271
9. chain 5 S1T  0.61
10. chain 5 I2S  0.691
11. chain 5 I2W  0.738
12. chain 5 L8V  0.815
13. chain 5 L8G  0.87
14. chain 5 F5L  0.916
15. chain 5 L8T  0.929
16. chain 5 I3C  1.02
17. chain 5 I3A  1.03
18. chain 5 F5Y  1.04
19. chain 5 I2M  1.08
20. chain 5 F5M  1.09
